Test results reported in PMC3902943.

Biological target: streptavidin (SA) (UniProt P22629 25-183)
Test: EMSA

Chain of streptavidin (SA) (P22629 25-183): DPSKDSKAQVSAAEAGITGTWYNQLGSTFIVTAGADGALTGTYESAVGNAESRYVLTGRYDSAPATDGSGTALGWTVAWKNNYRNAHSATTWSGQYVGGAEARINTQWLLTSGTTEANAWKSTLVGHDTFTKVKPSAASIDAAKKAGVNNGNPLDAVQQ

Q: With ACCGACCAGAAUCAUGCAAGUGCGUAAGAUAGUCGCGGGCCGGG (structured_RNA) [S1 aptamer (44 nt)] as the binder, how does the Kd read?
A: Its Kd is 59 nM.

B1: S1m aptamer (60 nt) (structured_RNA)
RNA: AUGCGGCCGCCGACCAGAAUCAUGCAAGUGCGUAAGAUAGUCGCGGGUCGGCGGCCGCAU
Q: How did the Kd turn out when B1 was run?
A: Its Kd is 29 nM.
